Test [1] has as its target T1, human CD47 expressed on cells (CD47 expressing CHO cells, Jurkat, HL60, DLD1, Raji) (human, UniProt Q08722 19-292).
T1 construct: also called CHO-CD47; IAP
The test is described as follows: EC50 (nM) as grade, flow cytometry, Fab on DLD1 cells; legend +: >60 nM.

In test [2] the target is T1, human CD47 expressed on cells (CD47 …). Put plainly: EC50 (nM) as grade, flow cytometry, Fab on HL60 cells; legend +++: <1 nM.
For test [3], the target named is T2, biotin labelled polyhistidine tagged CD47 protein (Novoprotein, Cat#321) (human, UniProt Q08722 19-139, biotin labelled (site not stated)).
T2 construct: Bought protein; also called biotinylated CD47; biotinylated human CD47 protein; not shown: polyhistidine tag
Put plainly: IC50 (nM) as grade, Fab blocking biotinylated CD47 binding to SIRPα-CHO cells; legend ++: >10 nM and <65 nM.

Test [4] addresses T1, human CD47 expressed on cells (CD47 …). The test is described as follows: EC50 (nM) as grade, flow cytometry, Fab on DLD1 cells; legend ++: >5 nM and <60 nM. A general note: In flow cytometry, cells or beads pass a laser one at a time.
For test [5], the target named is T3, His-tagged CD47 (Homo sapiens (Human), UniProt Q08722 19-139, limits assumed).
T3 construct: not shown: His tag
The test is described as follows: IC50 (nM) MFI as grade, blocking His-tagged CD47 binding to SIRPα-CHO cells; legend +++: <2 nM.

Test [6] has as its target T3, His-tagged CD47. The test is described as follows: IC50 (nM) Frequency as grade, blocking His-tagged CD47 binding to SIRPα-CHO cells; legend +: >2.7 nM.
The target of test [7] is T3, His-tagged CD47. Put plainly: flow cytometry blocking assay: His-tagged CD47 with Fab on SIRPα-expressing CHO cells (SIRPα is the blocked ligand), anti-His-APC, MFI.
The target in test [8] is T3, His-tagged CD47. The test is described as follows: flow cytometry blocking assay: His-tagged CD47 with Fab on SIRPα-expressing CHO cells (SIRPα is the blocked ligand), anti-His-APC, frequency.
The target in test [9] is T2, biotin labelled polyhistidine tagged …. Put plainly: IC50 (nM) as grade, Fab blocking biotinylated CD47 binding to SIRPα-CHO cells; legend +: >65 nM.
Test [10] concerns the target T1, human CD47 expressed on cells (CD47 …). The test is described as follows: EC50 (nM) as grade, flow cytometry, Fab on DLD1 cells; legend +++: <5 nM.
For test [11] the target is unchanged. The test is described as follows: IC50 as grade, SIRPα blocking on Raji cells; legend ++: >1 nM and <20 nM.
Test [12] shares this target. The test is described as follows: flow cytometry on human platelets, donor 1, MFI.
Test [13] shares this target. The test is described as follows: flow cytometry blocking assay on Raji cells, SIRPα is the blocked ligand, MFI.
Test [14] shares this target. The test is described as follows: IC50 as grade, SIRPα blocking on Raji cells (second part of the table); legend ++: >1 nM and <20 nM.
Test [15] shares this target. The test is described as follows: flow cytometry on human platelets, donor 2, MFI.
Test [16] has the same target. The test is described as follows: flow cytometry on human red blood cells, donor 1, MFI.
The target is the same in test [17]. Put plainly: flow cytometry on human red blood cells, donor 2, MFI.
For test [18] the target is unchanged. Put plainly: IC50 as grade, SIRPα blocking on Raji cells; legend +: >20 nM.

Substitutions are numbered along the chain they refer to.

B1: ABU11 (Fab) (Fab, V domains shown)
VH: EVQLQQPGAELVRPGSSVKLSCKASGYSFTTYWMHWVKQRPGQGLEWIGNINPSSGDSHYNEKFKSKATLTVDKSSSTAYLQLNSLTSEDSAVYYCARDYYGAYWGHGTLVTVSA
VL: DIQMTQSPASLSASVGETVTITCRASENVYSYLAWYQQKQGKSPQLLVYKANTLAEGVPSRFSGSGSGTQFSLKINSLQPEDFGTYYCQHHYGTPLTFGSGTKLEIK
notes: Phage-derived Fab: murine VL and VH fused to human CL and CH1
Take B1: the values for the EC50 in [1] and in test [2] were greater than 60 nM and less than 1 nM, respectively. Besides, in [3], the IC50 (commonly the concentration that inhibits the measured activity by half) fell in the range of 10 to 65 nM.

B2: ABU40 (Fab) (Fab, V domains shown)
VH: B1 VH with A9T, R13K, S16A, L81M
VL: B1 VL with V29I, K50N, N52K, T85S, S100A, I106L
notes: as for B1
For B2, the EC50 (usually the concentration giving half of the maximal effect) in test [2] is less than 1 nM; in test [4], 5 to 60 nM. The half-maximal inhibitory concentration (IC50) with His-tagged CD47 [5] is less than 2 nM; with His-tagged CD47 [6] it was greater than 2.7 nM; in test [3], 10 to 65 nM. Also, the “IC50 (read off the curve)” value in the test with His-tagged CD47 [7] is roughly 2 nM; in the test with His-tagged CD47 [8] it was roughly 3 nM.

B3: ABU20 (Fab) (Fab, V domains shown)
VH: RGKVQESGPGLVKPSQSLSLTCSVTGYSITSGYYWNWIRQFPGNKLEWMGYINYDGSNNYNPSLKNRISITRDTSKNQFFLKLNSVTTEDTATYYCARGYYYGSSYGYWYFDVWGTGTTVTVSS
VL: DAVVTQESALTTSPGETVTLTCRSSTGAVTTNNYANWVQEKPDHLFTGLIGGTNNRAPGVPARFSGSLIGDKAALTITGAQTEDEAIYFCALWYSNHLVFGGGTKLTVL
notes: as for B1
For B3, the EC50 in [1] was greater than 60 nM; in [2], less than 1 nM. This molecule also showed an IC50 in test [3] of 10 to 65 nM.

B4: ABU24 (Fab) (Fab, V domains shown)
VH: EVQLQQPGTELVKPGASVKLSCKASGYTFTSYWMHWVKQRPGQGLEWIGNVVPNNDGTNYNEKFRNKATLTVDKSSSTAYMQLSSLTSEDSAVYYCAVTYFAYWGQGTLVTVSA
VL: B3 VL with T30S, N32S, L98W
notes: as for B1
For B4, the figures for the EC50 in test [2] and in test [4] were less than 1 nM and 5 to 60 nM, respectively. In test [9], this molecule displayed an IC50 greater than 65 nM.

B5: ABU16 (Fab) (Fab, V domains shown)
VH: RVQLQQSGAELVRPGTSVKVSCKASAYAFTNYLIEWVKKRPGQGLEWIGVINPGSGGTNYNEKFKGKATLTADKSSSTAYMQLSSLTSEDSAVYFCARGDGYGSLFAYWGQGTLVTVSA
VL: RHCFNQSPAIMSASPGEKVTMTCSASSSVSYMHWYQQKSGTSPKRWIYDTSNLASGVPVRFSGSGSGTSYSLTISRMEAEDAATYYCQQWSNYPFTFGSGTKLELK
notes: as for B1
For B5, the results for the EC50 in test [2] and in [10] were less than 1 nM and less than 5 nM, respectively. Also, the IC50 in test [9] was greater than 65 nM.

B6: H-ABU 5 (antibody, V domains shown)
VH: QVQLVQSGAEVKKPGASVKVSCKASGYTFTDNYINWVRQAPGQRLEWMGWIYLGSGNTKYNEKFKGRVTITRDTSASTAYMELSSLRSEDTAVYYCARREERGFAVWGQGTLVTVSS
VL: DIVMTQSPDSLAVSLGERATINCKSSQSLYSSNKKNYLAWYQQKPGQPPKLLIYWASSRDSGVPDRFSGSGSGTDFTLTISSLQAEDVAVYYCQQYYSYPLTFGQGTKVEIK
As for B6, the IC50 in [11] lay in the range of 1 to 20 nM.

B7: H-ABU 9 (antibody, V domains shown)
VH: B6 VH with N32L, V106Y
VL: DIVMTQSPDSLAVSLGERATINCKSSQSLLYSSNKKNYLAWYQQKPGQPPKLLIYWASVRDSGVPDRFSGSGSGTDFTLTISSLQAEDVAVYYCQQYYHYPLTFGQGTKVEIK
On to B7, for which the EC50 (read off the curve) (in general, the midpoint of the concentration-response curve) in [12] was roughly 1 nM. Besides, the “IC50 (read off the curve)” value in [13] was roughly 8 nM. Besides, the IC50 in test [14] lay within 1 to 20 nM.

B8: H-ABU 10 (antibody, V domains shown)
VL: DIVMTQSPDSLAVSLGERATINCKSSQSLVSSSQKNYLAWYQQKPGQPPKLLIYWASVRDSGVPDRFSGSGSGTDFTLTISSLQAEDVAVYYCQQYYSYPLTFGQGTKVEIK
VH: B6 VH with V106P
For the molecule B8, the “EC50 (read off the curve)” value in [12] is roughly 0.6 nM; in test [15], roughly 0.6 nM; in [16], roughly 3 nM; in [17], roughly 3 nM. Moreover, the “IC50 (read off the curve)” value in test [13] is roughly 1 nM. The same molecule registered an IC50 in test [14] of 1 to 20 nM.

B9: H-ABU 3 (antibody, V domains shown)
VH: B6 VH with N32S, L53T, V106Y
VL: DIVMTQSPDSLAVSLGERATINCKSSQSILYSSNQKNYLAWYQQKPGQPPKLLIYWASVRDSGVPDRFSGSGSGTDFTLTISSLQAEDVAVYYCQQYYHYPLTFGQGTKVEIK
Take B9: in test [18], the IC50 was greater than 20 nM.
